Results: patent publication US20190292266A1 (NAVIGO PROTEINS, published 2019)

Target: T1, CD3 (Example 7)
T1 construct: Partner of the 145-2C11 Fab and its fusions
Assay: SPR, biotinylated CD3 on SA chip, Langmuir 1:1
Experimental: For SPR-analysis of PD1/CD3, a CM5 sensor Chip (GE Healthcare) with immobilized target PD1 (about 800 RU) was prepared. CD3 was 10 times biotinylated and immobilized on SA coupled sensor chip (GE Healthcare) of about 200 RU. Specific binding of biotin and streptavidin provides a strong interaction of the target protein on the chip. Injection of free biotin blocks unbound streptavidin avoiding unspecific interaction during measurement. Determination of dissociation constant and data evaluation was equal to Example 6.

T1 sequence (P22646 22-108): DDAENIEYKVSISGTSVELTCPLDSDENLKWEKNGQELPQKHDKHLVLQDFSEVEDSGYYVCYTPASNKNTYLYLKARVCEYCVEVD

B1: 145-2C11 Fab Fragment (Fab, V domains shown)
VH: EVQLVESGGGLVQPGKSLKLSCEASGFTFSGYGMHWVRQAPGRGLESVAYITSSSINIKYADAVKGRFTVSRDNAKNLLFLQMNILKSEDTAMYYCARFDWDKNYWGQGTMVTVSS
VL: DIQMTQSPSSLPASLGDRVTINCQASQDISNYLNWYQQKPGKAPKLLIYYTNKLADGVPSRFSGSGSGRDSSFTISSLESEDIGSYYCQQYYNYPWTFGPGTKLEIKR
notes: also called PID 38; CD3 specific Fab fragment
For B1, the Kd was 13.4 nM, the koff was 0.00296 s⁻¹ and the kon was 221000 M⁻¹ s⁻¹.
